# Test results reported in US20230416341A1, “IMPROVED THROMBIN INHIBITORS FOR TREATMENT OF THROMBOEMBOLIC CONDITIONS” (priority 2020, published 2023).
# Tested on: occluded carotid artery
# Assay: Experimental thrombosis and thrombolysis of the carotid artery (electrolytic injury, rtPA/anticoagulant combination, vessel recanalization)
# Type: in vivo, mice
# Details: rtPA therapy alone, 10 mg/kg bolus/infusion, blood flow assessed for 60 minutes
# Description: Thrombosis: Electrolytic injury was used to generate in situ thrombotic occlusion of the carotid artery in anaesthetised mice, as described (Jackson et al, Nature Medicine 2005; Schoenwaelder et al, J Biol Chem, 2007). Baseline blood flow through the carotid artery was measured using an ultrasound Doppler flow probe. The flow probe was removed, and vessel injury was delivered in the presence of stasis, through placement of a distal haemostatic clamp (Micro Serrefine Clamp, 18055-05, Fine Science Tools, Canada). Delivery of an electrical current (8 mA or 28 mA for 3 minutes) was achieved using a lesion making device (Model 53500, Ugo Basile, Comerio, VA, Italy), with the injury site flushed constantly with saline to prevent tissue dehydration. […]
# Thrombolysis: Intravenous thrombolysis was commenced 15 minutes following stable thrombotic vessel occlusion, as monitored with the flow probe. rtPA was administered via jugular catheter using a Harvard Apparatus syringe pump (Cat #704504; Pump Elite 11 I/W Single Syringe Pump, NSW, Australia). […] Carotid artery blood flow was assessed for 60 minutes following commencement of treatment. […] Following thrombolytic therapy, return of carotid artery blood flow was assessed using the mean blood flow recorded with LabChart software (version 7.0, ADInstruments, NSW, Australia). […]
molecule,measurement,value
"rtPA: thrombolytic agent recombinant tissue plasminogen activator (protein, UniProt P00750 36-562, looked up) Tissue-type plasminogen …: SYQVICRDEKTQMIYQQHQSWLRPVLRSNRVEYCWCNSGRAQCHSVPVKSCSEPRCFNGGTCQQALYFSDFVCQCPEGFAGKCCEIDTRATCYEDQGISYRGTWSTAESGAECTNWNSSALAQKPYSGRRPDAIRLGLGNHNYCRNPDRDSKPWCYVFKAGKYSSEFCSTPACSEGNSDCYFGNGSAYRGTHSLTESGASCLPWNSMILIGKVYTAQNPSAQALGLGKHNYCRNPDGDAKPWCHVLKNRRLTWEYCDVPSCSTCGLRQYSQPQFRIKGGLFADIASHPWQAAIFAKHRRSPGERFLCGGILISSCWILSAAHCFQERFPPHHLTVILGRTYRVVPGEEEQKFEVEKYIVHKEFDDDTYDNDIALLQLKSDSSRCAQESSVVRTVCLPPADLQLPDWTECELSGYGKHEALSPFYSERLKEAHVRLYPSSRCTSQHLLNRTVTDNMLCAGDTRSGGPQANLHDACQGDSGGPLVCLNDGRMTLVGIISWGLGCGQKDVPGVYTKVTNYLDWIRDNMRP",vessel recanalization,remains occluded
